The test addresses SARS-CoV RBD (SARS-CoV (P59594; strain ), UniProt P59594). The experiment in a line: ELISA. The conditions noted are these: both partners purified. For orientation: ELISA stands for enzyme-linked immunosorbent assay.

B1: S2E12 human monoclonal antibody (IgG) (antibody, V domains shown)
VH: not shown
VL: DIVLTQTPGTLSLSPGERATLSCRASQSVSSSYLAWYQQKPGQAPRLLIYGASSRATGIPDRFSGSGSGTDFTLTISRLEPEDFAVYYCQQYVGLTGWTFGQGTKVEIK
notes: also called S2E12 IgG; S2E12 mAb; copies: 2 + 2
In the case of B1, the binding result is “no binding”.

B2: S2M11 human monoclonal antibody (IgG) (antibody, V domains shown)
VH: EVQLVQSGAEVKKPGASVKVSCKASGYTFTGYYMHWVRQAPGQGLEWMGWINPISSGTSYAQTFQGRVTMTSDTSITTAYMELSRLRSDDTAVYYCARAAPFYDFWSGYSYFDYWGQGTLVTVSS
VL: not shown
notes: also called S2M11 IgG; S2M11 mAb; copies: 2 + 2
Turning to B2, the binding result is “no binding”.

The values are drawn from paper PMC7857395 (Science (New York, N.y.), 2020).
